Patent US20190367592A1
Where a chain is given by its changes, count along the chain named.

B1: hu37D3.v28.A4 (antibody, V domains shown)
VH: EVQLVESGGGLVQPGGSLRLSCAASGLIFRSYGMSWVRQAPGKGLEWVATINSGGTYTYYPDSVKGRFTISRDNSKNTLYLQMNSLRAEDTAVYYCANSYSGAMDYWGQGTLVTVSS
VL: DDVLTQTPLSLPVTPGQPASISCRSSQSIVHSNGNTYLEWYLQKPGQSPQLLIYKVSNRFSGVPDRFSGSGSGTDFTLKISRVEAEDVGVYYCFQGSLVPWTFGQGTKVEIK
B2: hu37D3-H9.v5 (antibody, V domains shown)
VH: B1 VH
VL: B1 VL with D1E, L38F
B3: hu37D3-H9.v1 (antibody, V domains shown)
VH: B1 VH
VL: EDQLTQSPSSLSASVGDRVTITCRSSQSIVHSNGNTYFEWYQQKPGKSPKLLIYKVSNRFSGVPSRFSGSGSGTDFTLTISSLQPEDFATYYCFQGSLVPWTFGQGTKVEIK

molecular target: monomeric cynomolgus monkey Tau (cynomolgus monkey); experiment: SPR, hIgG captured, cyno Tau monomer analyte

| Binder | Kd [pM] | koff [s⁻¹] | kon [M⁻¹ s⁻¹] |
| --- | --- | --- | --- |
| B1 | 700 | 0.001 | 1.7e+06 |
| B2 | 600 | 0.001 | 1.5e+06 |
| B3 | 800 | 0.001 | 2e+06 |
